# According to the DeepSol protein solubility set:
# Assay: soluble on expression in E. coli; label from the status in PepcDB or PDB records
row,Sequence,soluble on expression in E. coli
1,NEIKKILIMPTWRDWLNSTYAFDNSDYMKHYLSLINSPKLQALINEYDIEINFYPHYRSQMFFKSFLTDNKSDINYIELGDKTVQELLVEHDLLITDYSSVSFDFSYMKKPVIFYHFDVKKFFRKGILRSIKDTFIGDIAHTEKELISLIEDNIKNPKNMEYQNLSSIFDYTDHHNNQRVYHSILDLIQDNT,not soluble
2,TGVSSFQEILDKGMVFVNRNKGSGTRDLIEELIGNNESIRKNMKGYLWETNTEAGVARAVEQGRADAGITLEYYAIKLGLKYTHINKENYDILISKEFYDSEYGQAFIKNLKGLKDRIKNYPGYSVPDDI,not soluble
3,MHRKISCGINDIKSEFFEAERMNNSVTVEVTRGNLVESRHQGLAVVVDGDGGVLFSAGDIERGIFPRSACKAMQALPLVESGATDAYGFGNRELALACSSHSGEDAHAELAAAMLAKAGRDVDTLECGAHWSSDQKTIIHQARTLEKPTALHNNCSGKHSGFICACCHTGTDPKGYVGYDHPLQRQIRATMESLTGAALGHDNCGVDGCSIPTYAVPLKGLAHGFAKMATGRGLEAERAKASRRLIEACMAEPFYVAGTGRACTKLMQIAPGKIFAKTGAEGVFIAALPNQGIAMAVKCEDGTTRAAEAMVTALLARYFDDGSAEQQALKGMANRQMRNWNGIHVGDISVIGLAAALEHHHHHH,soluble
4,QAMTKTLRTPEHVYLCQRLRQARLDAGLTQADLAERLDKPQSFVAKVETRERRLDVIEFAKWMAACEGLDVVSEIVATIAEGRAQA,soluble
5,MGSDKIHHHHHHMNKPLDKQLAELDIFSLLLFRAIFETGHANIAARQLDVSAPKVSRALASLRLIFADELFYRRQQGFRPTPLAEQIYPAIRELTDSINLLGMQLKDHQAFHRQECQVFDLAVSSGILTTLALEFNRREGLCPSVVLHHWQENTADRIHAGELDLGLALAPEPHTELSYERLCDAPGLCLVGAANHPIWQYTDICLEHICEYPFLCMNYPGFNDKVDPLELFCHREGLIPPTVLRVTDKEEWFGHLLCQHSLAFASPLEWGLLNALPGVEIKHLPAKEISRLHSGSAVPGLYLIEKPAHHRRYSPDDREKLLHIISLTLGLVTEDHPVNFSI,not soluble
6,MIYSFRNSGFRDPETGVYNQTYFMEVFNREWHRHIREQQSLALLYLCPHIHETVKQPHLLEFFTKQVQEALLRATDLIARLDHNHFALGLFNIDEEGTEVVLKRIGQHIQDFNQEFGKNHKLKIDYKLAACLCLPTQEQKIESMFNNVSKLSQELERSPQQSQALIKLQ,not soluble
7,MTYKELATFLKVLSDSSRLEILDLLSCGELCACDLLAHFQFSQPTLSYHMKALVKTNLVTTRKIGNKHLYQLNHNIFESVINNLSKVHTSNQRCICHNLKTGEC,not soluble
8,MSLRQFWFTMVKVDGTSMQPNLQNNERVVAFKTSKIKAGSVVVFNAYGLDPNQTDKNAVYVKRVIGMPGDTVRYTSSGKLYVNNKLVKQTYLKNKYQQTTGSFMANSHSKFTGWTLNSLSHDQGWAKSVTNNTVPKGYYFVLGDHRSVSNDGRYWGLVPKSKMIGVVKAWPWQNRKQYINNYQEGHHHHHH,soluble
9,MSLEKKVVKFFTVDNMEKEEAYLNEMAQNGWFFQKYKSFRYHFKQGEPAKYSYAIDFKENEGDEDAYKTLFEDAGWETVFSYPVLNGNWMYFRKAVAPGETEEAIFTDETSLIQLYKNIRKREGHHHHHH,soluble
10,MGSDKIHHHHHHMFSQTIFFGMKQSARGVSVAFSTLQEASMHKRVLIQAASALLALQFMAVPVFAAGSSGGGSDQTVTQCKKGEVWDKKKKKCVAPQEGMLDDDSIYDAGHALAMAGRYDEAISVLTLAANKQDPRILNYLGYSHRHSGRVTVGLGYYEEALRIDPNYTLVREYLGEAHLQIGDLAGAQQQLMEIEKRTGKGSREYGMLSEQIDHFMRS,not soluble
11,MGKRKTKEDNASEDYDANELMIVPGEKRKKLEKSGEKSATGGKKNRNFAKEKEVAKLTKQAKRKLAAVQSRKALKQTQEELFAGLAEFQLDPSKLCQLSSSTKLSKEPEKAPVFPEKLKVFSGKTKTEAKRTQQDYYPTDDESSSEEEEEEEEGDNDIEDAGNTVEVKIEPIDLDDVDEAIDGNPETNLDQIVVKREDDEESDNEDILALPTTTVINRKKVIVERSKEIQKSRAELPIFAEEMRIVEAINENLVTVVCGETGSGKTTQIPQFLYEAGYASEGELIGITEPRRVAAIAMAQRVGVELAKPDEVSYQIRYEGTRSETTNILFMTDGVLMKEMEQDVMLKKYSVILIDEAHERSMYSDVLIGMLSRIVPLRSKTARPLRLVIMSATLRLDDFTHKKLFPLLTPKVIKVDARQFPVSVHFEKRTPDDYIASAFRKTCRIHETLPPGAILVFVTGQHEVKQLITKLKKRYPVVYETDKNGEVLVKGTKEWKEKKVEAAKSIKLEDFKEETPETEDFEDVDDGLMDGDDMNERGAAEAFDDYEEFENGDGDLSDGKVENSIGAPPADCEPLYCLPLYSLLSMGKQRRVFDETPAGMRLCVISTNVAETSLTIPGVKYVIDGGFEKRRLYDSITGVSRFAVCRISQASGDQRAGRAGRISAGHAYRLYSSAVYQDFVKFADPEILSKPADQLVLHLKSMNIVKVVNFPFPSAPDEQMLESAEKRLCRLGALSESTKNGKTEARITKLGKTLAVFPLAPSYAKFIAMADQHNLMSHAILLISLLSVREPLIPVSSLRGDTPEETKELMKNVLKERRRWCSHTGARRLGDLKVLMHAASVAEQIKYNARECEKVGLRVKALVEARKLRQQLTNIVNASCKKEHAAALDSDLPPPTDQQAQLLRQMVVASFSDRLARRVDRSVGQEEVQKGAYETTLIKGHVFIDPCSVVFTEEPEFVIYQELVQVNEKKLMTSVCAVDKEWLSRLAESYCNYGEQDKNQEPIYDPVKDMVVKTVKVTFGPLNWELPNENRSVPHDIMMYRYFALFLLDGLVFEKLKEYTPKLLAPPSTMVKSWAKLQKRTEMLLNKLIEKEVTTRSSLKEQWLKNENWLLEEYLEWVPESVHQQISLMWPPLEDHEKTIKMGRNKKY,not soluble
12,MAHHHHHHMNGELNIGAGRVIFYRTIAKQNRNTLPLWTLQRHLYAYHPYVWFAIASASNAEAMEKLAERLGMKLVQDATTSYKISIRRSSELLDGELNAQLQCTKMNRPWDRFLITHYVRSQMPDLRFLVRARHPIKKRVTDAYLEADILRSTRDSVQSVLSPELGEVCYCCERVIRKWAMRTQTGVTLQLVETRRTPLIITKAGDEGERLEYEWIVVLPQKAERIDIAALSAELWDYGNVLARELEPGMEEFLSHTMTAAASY,not soluble
13,MSLSVYEKVNALDKRAIEELFLSEDILMENAAMALERAVLQNASLGAKVIILCGSGDNGGDGYALARRLVGRFRVLVFEMKLTKSPMCQLQKERAKKAGVVIKTYEENALNQNLECDVLIDCVIGSHFKGKLEPFLNFESLSQKARFKIACDIPSGIDSKGRVDKRAFKADLTISMGAIKSCLLSDRAKDYVGELKVGHLGVFNPIYEIPTDTFLLEKSDLKLPLRDKKNAHKGDYGHAHVLLGKHSGAGLLSALSALSFGSGVVSVQALECEITSNNKPLELVFCENFPNLLSAFALGMGLENIPKDFNRWLELAPCVLDAGVFYHKEILQALEKEAVLTPHPKEFLSLLNLVGINISMLELLDNKLEIARDFSQKYPKVVLLLKGANTLIAHQGQVFINILGSVALAKAGSGDVLAGLILSLLSQNYTPLDAAINASLAHALASLEFKNNYALTPLDLIEKIKQLEGHHHHHH,soluble
14,MTYGYPKKWKENMTSGQVIAAELRLGIVSGEIESHIQLSENQVAQQFNVSRSPVRDAFKLLQTDQLIQLERMGAQVLPFGDQEKKEMYDLRLMLESFAFSKLSGTDTQHIIKEMKKQLEMMKVAVQFEDAEAFTQHDFEFHEVMIQATNHQYLKVFWNHLKPVMESLILISMRQRMANDPKDFERIHKNHQVFIDAVENDDASILRKAFHLNFDDVGENIEAFWLR,not soluble
15,SPLHWLQWERGGVGSDQDLGCHWLPLPTGSDGGDAVEYNPNLLDDPQWPCGKHKRVLIFASYMTTVIEYVKPADLKKDMNETFREKFPHIKLTLSKIRSLKREMRNLSEECSLEPVTVSMAYVYFEKLVLQGKLNKQNRKLCAGACVLLAAKISSDLRKSEVKQLIDKLEERFRFNRKDLIGFEFTVLVALELALYLPENQVLPHYRRLTQQF,not soluble
16,AIATLLDWMNVCSVEIPKRIIAKHFSACQHTNQEVFSLDDSLAGLDECLHCEDSQQNHRKVSPGQTLRIVMIGKTGVGKSAVGNTILNREVFESKPSANSITQSCRKASVYDTREIYVIDTPGILDTSKEKDIIKREIVKCIKVSAPGPHAFLLVIQIGRFTAEEQRAVQALQELFGEDASNYMIVLFTHGDLLKGQTIDQYVREGHIELRRVIQSCGGRYAVFNNTMKDRTQVKTLIDKIDQMVAVNGGECYTQEMFREAEEKIRQQKEKREIAELQEYQFSFLGILENRVTLFQRILLEGYREQFAIESGIYK,soluble
17,MTTLSHVEALCALEQPYRADAECDRLFDAAMRELVDYHCEHSPGYRRWLEQNGFTPERLAGLSDWSQLPPIFANYFKRRLLLSTSGEDALELTSSGTTGQKSRMRYDERSIGAAQRMVDRIFDHYGWNTPQQPCNYLLLSYEPAGAITLGTAYTDQFLCKYAPVKRAVYALRHNGKGNEFDPFGAIRALQEFAAEGLPVRIFGFPAFLWFALERMRDMGLPPLALHPESLVFLGGGWKTHADQAIPKAELYRRLGEQLGLPDARCRDGYGSVEHPVPYVECTNHRFHVPSWARAWARDTATLARLPYGEAGFLHLVSPYITSSPAHSMLLSDLAVLQLAERCGCGLATDWFELLGRAGTSKSRSCAMAASELIKESLEHHHHHH,soluble
18,MRTRIDYLADKYCFTERNESPRLRRQWQDVLEECRQTEAGPEERLRIALLNVDYVTSFELPFRLLLTRTPQLIAALREEWGISQKNVVFNDKRFGCVYSLKASLSGVPDTYRYHLSHRIRRVVGNENTSLPYQQVAREVKAPRERLKYALEAGLLVTALDGLFRFGSQRIAADVLRLRKAGMPVVTTTVEVHDNLTGTTRKVPAYHL,not soluble
19,MGSDKIHHHHHHMIIHKFIIHVLDKNSDTPILNDFEGRVSQDMDLFFQKKISKVSRDNDIRTAVFNDYSNNLIKKCCEQIIYDESSFLNSSKEIAAYLFDVMKLNATLESCDLAICLYSQKDEKKVAILKLDYNKSYTHSIEFKDDKFNIQMSKNEINIQETKTIKIGAIIGLSGVNDEYHLKVLDKDAEKEEVNSKFVTEFLNATKVKDDKYRTKMFKTFVDAYIANLYSDMKQGEDVRSILLYMLREKQNLDINEFADKAIKDDLKDSFKDHAEEKGIESFNIDKKWVEKNLKNRHIKTDTGFEVKGKMDDFEDFMKYGIRHNGNGTVDIVIKNVNFYDEK,not soluble
20,MGSDKIHHHHHHVAAESKTIAIALNNDFINNLDLSPASTVIEQLLRDGAASHEQQLRFDINYDLEPGDPRELSEIPEIRLWFVRLDAKYPWLAFLLDWKAGEFARYAAMLVPHQFSSQDGIQYNPEALEIFLMHKIFILGDWLKQQDIPSLSRLKSMAQMLGYELDDAFFEIF,not soluble
21,MFRLSALYRYPIKSSAAESLERVALDALGVVGDRRWMAVDTETGRFFTQRLLPQLGRIQARWAAPEVLRLNAPGMSELSLEVPAADANLRGVTVWRDTLQAPDAGDAAADWLTRFLGRP,not soluble
22,PWTQNKRNLKHLNQLKEDILNNFEDLKLKDEKIIVMLSGGKDSAVSLAVAKELGLNVHLCVHFVHKWSWDISTNEAKKLADRFNIPIIFPNVTEELAKKTQGAKGKSICRICKTIMKARMIDIAKEENAKIIMTGETALEKIAGPVFQYIRENNTNVKRKDEFELYKKMEITKVPKRYKIHFFRPLIRVGHFDVFNLQKYYNIDIKRVSE,not soluble
23,MSLIYLHGFDSNSPGNHEKVLQLQFIDPDVRLVSYSTRHPKHDMQHLLKEVDKMLQLNVDERPLICGVGLGGYWAERIGFLCDIRQVVFNPNLFPYENMEGKIDRPEEYADIATKCVTNFREKNRDRCLVILSRHDEALDSQRSAQALHPFYEIVWDEEQTHKFKNISPYLQRIKAFKTLGEGHHHHHH,not soluble
